{
  "source": "patent US20210147558A1",
  "about": "(OSE IMMUNOTHERAPEUTICS, published 2021)",
  "binders": {"B1": {"name": "anti-CMKLR1 antibody clone 2G1 (antibody, V domains shown)", "VH": "EVQLVASGGGLVQPGGSLKLSCAASGFTFSSYGMSWVRQTPDRRLELVATINRYGGSTYYPDSVKGRFTISRDNAKNTLYLQMSSLKSEDTAMYYCPRLIYYGNEGDSWGQGTTLTVSS", "VL": "QIVLTQSPAIMSASPGEKVTMTCSASSSVSFMHWYQQKSGTSPKRWIYDTTKLTSGVPARFSGSGSGTFYSLTISSMEAEDAATYYCQQWNSKPPLTFGPGTKLELKR"}},
  "target": "T1, human CMKLR1 (Chemokine-like receptor 1) (human, UniProt Q99788 1-373)",
  "T1 sequence": "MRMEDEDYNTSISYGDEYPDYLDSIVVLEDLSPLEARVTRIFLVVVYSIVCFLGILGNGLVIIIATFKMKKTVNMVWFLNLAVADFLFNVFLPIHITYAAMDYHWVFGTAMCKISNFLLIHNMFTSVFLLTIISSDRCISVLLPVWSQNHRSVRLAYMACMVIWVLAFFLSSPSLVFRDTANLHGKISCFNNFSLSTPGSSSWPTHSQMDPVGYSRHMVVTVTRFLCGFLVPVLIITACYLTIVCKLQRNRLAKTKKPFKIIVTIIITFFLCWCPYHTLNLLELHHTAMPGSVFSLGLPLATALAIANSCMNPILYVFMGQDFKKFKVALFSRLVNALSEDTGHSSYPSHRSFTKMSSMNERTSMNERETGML",
  "assay": "cell-based or functional assay",
  "data": [
    {"binder": "B1", "values": [
      {"measurement": "IC50 (read off the curve) of the partial decrease (about one fifth); 2G1 with chemerin 6 nM (circles), beta-arrestin recruitment, CHO-K1 CMKLR1 cells", "result": "~10", "unit": "nM"},
      {"measurement": "IC50 (read off the curve) of the partial decrease (about one third); 2G1 with chemerin 2 nM (diamonds), beta-arrestin recruitment, CHO-K1 CMKLR1 cells", "result": "~20", "unit": "nM"}
    ]}
  ]
}
